In patent CN106632674A:

How the values were obtained:
[1] = target: PD-1ECD-TEV-hFc融合蛋白 (human); test: competition ELISA, antibody titrated from 1.5 ug/ml against PDL-1 Fc fusion (2 ug/ml; PDL-1-mFc assumed) on coated PD-1 Fc fusion (PD-1-hFc assumed)
[2] = target: PD-1ECD-TEV-mFc融合蛋白 (human); test: indirect ELISA, coated PD-1 Fc fusion (mFc form assumed for 5C4), run together with 6F5 and 6F5(Re)
[3] = target: PD-1ECD-TEV-mFc融合蛋白 (human); test: indirect ELISA, coated PD-1 Fc fusion (mFc form assumed for 5C4), run together with 6F5H1L1 and 6F5H2L2

PD-1ECD-TEV-mFc融合蛋白 (human), sequence (main, as listed by the source, form in doubt): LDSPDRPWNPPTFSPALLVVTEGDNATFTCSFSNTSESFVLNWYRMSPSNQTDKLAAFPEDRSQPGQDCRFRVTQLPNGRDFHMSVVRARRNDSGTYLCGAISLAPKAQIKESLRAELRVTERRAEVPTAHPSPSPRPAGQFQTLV
PD-1ECD-TEV-hFc融合蛋白 (human), sequence (main, as listed by the source, form in doubt): as above

EC50 [1]: 1.46 nM
EC50 [2]: 0.199 nM
EC50 [3]: 0.233 nM
Substance: 阳性对照抗体5C4 (antibody)
